Measured values published in patent US8008547B2, “Glyphosate-N-acetyltransferase (GAT) genes” (E.I. duPont de Nemours, priority 2000, dated 2011).

Assay: Standard protocol for determination of kcat and KM (continuous spectrophotometric assay, Acetyl CoA hydrolysis at 235 nm)
Type: biochemical
Settings: purified protein, about 23° C., 0.2 mM acetyl CoA; for Kcat: 20 mM HEPES pH 6.8, 10% ethylene glycol; for Km: pH 6.8, glyphosate 0.125 to 10 mM
Protocol: KM was calculated from the initial reaction rates obtained from concentrations of glyphosate ranging from 0.125 to 10 mM, using the Lineweaver-Burke transformation of the Michaelis-Menten equation. kcat/KM was determined by dividing the value determined for kcat by the value determined for KM.
Using this methodology, kinetic parameters for a number of GAT polypeptides exemplified herein were determined. For example, the kcat, KM and kcat/KM for the GAT polypeptide corresponding to SEQ ID NO:445 have been determined to be 322 min^−1, 0.5 mM and 660 mM^−1 min^−1, respectively, using the assay conditions described above. The kcat, KM and kcat/KM for the GAT polypeptide corresponding to SEQ ID NO:457 have been determined to be 118 min^−1, 0.1 mM and 1184 mM^−1 min^−1, respectively, using the assay conditions described above. The kcat, KM and kcat/KM for the GAT polypeptide corresponding to SEQ ID NO:300 have been determined to be 296 min^−1, 0.65 mM and 456 mM^−1 min^−1, respectively, using the assay conditions described above. One of skill in the art can use these numbers to confirm that a GAT activity assay is generating kinetic parameters for a GAT suitable for comparison with the values given herein. For example, the conditions used to compare the activity of GATs should yield the same kinetic constants for SEQ ID NO: 300, 445 and 457 (within normal experimental variance) as those reported herein, when the conditions are used to compare a test GAT with the GAT polypeptides exemplified herein. Kinetic parameters for a number of GAT polypeptide variants were determined according to this methodology and are provided in Table 3.

B1: SEQ ID NO: 445: GAT polypeptide (protein)
chain: MLEVKPINAEDTYELRHRILRPNQPIEACMYESDLLRGAFHLGGYYRGKLISIASFHQAEHSELQGQKQYQLRGMATLEGYREQKAGSSLIKHAEEILRKRGADLLWCNARTSASGYYKKLGFSEQGEIFETPPVGPHILMYKRIT
modifications: 0_5D3
notes: GAT polypeptide
In the case of B1, the Kcat is reported as 5.37 s⁻¹ and the Km is reported as 500 µM.

B2: SEQ ID NO: 457: GAT polypeptide (protein)
chain: MLEVKPINAEDTYELRHKILRPNQPLEVCMYETDLLRGAFHLGGFYRGKLISIASFHQAEHSELQGQKQYQLRGMATLEGYREQKAGSSLIKHAEEILRKRGADLLWCNARTSASGYYKKLGFSEQGEVFDTPPVGPHILMYKRIT
modifications: 10_4H4
notes: GAT polypeptide
For B2, the Kcat was 1.9727 s⁻¹, the Kcat (listed as SEQ ID NO:457) was 1.97 s⁻¹ and the Km was 100 µM.

B3: SEQ ID NO: 300: GAT polypeptide (protein)
chain: MIEVKPINAEDTYEIRHRILRPNQPLEACMYETDSLGGTFHLGGYYRGKLISIASFNQAEHPELEGQKQYQLRGMATLEGYREQKAGSTLIRHAEELLRKKGADLLWCNARTSASGYYKKLGFSEQGEVYDTPPVGPHILMYKKLT
modifications: 13_6D10
notes: GAT polypeptide
B3 showed a Kcat of 4.942 s⁻¹, a Kcat (listed as SEQ ID NO:300) of 4.93 s⁻¹ and a Km of 650 µM.

B4: SEQ ID NO: 365: GAT polypeptide (protein)
chain: MIEVKPINAEDTYEIRHRILRPNQPLEACMYETDLLGGTFHLGGYYRGKLISIASFHQAEHPELEGQKQYQLRGMATLEGYREQKAGSTLIRHAEELLRKKGADLLWCNARTSASGYYEKLGFSEQGEVYDIPPIGPHILMYKKLT
modifications: 4A_1B11
notes: GAT polypeptide
With B4 the Kcat was 0.387 s⁻¹ and the Km was 1600 µM.

B5: SEQ ID NO: 362: GAT polypeptide (protein)
chain: MIEVKPINAEDTYEIRHRILRPNQPLEACMYETDLLGGTFHLGGYYRGKLISIASFHQAEHSELEGQKQYQLRGMATLEGYREQKAGSTLIRHAEELLRKKGADLLWCNARISASGYYKKLGFSEQGGVYDIPPVGPHILMYKKLT
modifications: 3C_10H3
notes: GAT polypeptide
Work on B5 yielded a Kcat of 0.565 s⁻¹ and a Km of 1100 µM.

B6: SEQ ID NO: 363: GAT polypeptide (protein)
chain: MIEVKPINAEDTYEIRHRILRPNQPLEACMYETDLLGGTFHLGGYYRGKLISIASFHQAEHSELEGQKQYQLRGMATLEGYRGQKAGSTLIRHAEELLRKKGADLLWCNARTSASGYYEKLGFSEQGEVYDIPPIGPHILMYKKLT
modifications: 3C_12H10
notes: GAT polypeptide
Molecule B6 has a Kcat of 0.152 s⁻¹ and a Km of 1200 µM.

B7: SEQ ID NO: 367: GAT polypeptide (protein)
chain: MIEVKPINAEDTYEIRHRILRPNQPLEACKYETDLLGGTFHLGGYYRGKLISIASFHQAEHPELEGQKQYQLRGMATLEEYREQKAGSTLIRHAEELLRKKGADLLWCNARISASGYYEKLGFSEQGEVYDIPPIGPHILMYKKLT
modifications: 4B_13E1
notes: GAT polypeptide
B7 gave a Kcat of 0.62 s⁻¹ and a Km of 2000 µM.

B8: SEQ ID NO: 360: GAT polypeptide (protein)
chain: MIEVKPINAEDTYEIRHRILRPNQPLEACMYETDLLGGAFHLGGYYRGKLISIASFHPAEHSELEGQKQYQLRGMATLEGYREQKAGSTLIRHAEELLRKKGADLLWCNARISASGYYEKLGFSEQGEVYDIPPIGPHILMYKKLT
modifications: 3B_12D10
notes: GAT polypeptide
B8 showed a Kcat of 0.09 s⁻¹ and a Km of 900 µM.

B9: SEQ ID NO: 368: GAT polypeptide (protein)
chain: MIEVKPINAEDTYEIRHRILRPNQPLEACMYETDLLGGTFHLGGYYRGKLISIASFHQAEHSELEGQKQYQLRGMATLEGYREQKAGSTLIRHAEELLRKKGADLLWCNARTSASGYYKKLGFSEQGGVYDIPPIGPYILMYKKLT
modifications: 4B_13G10
notes: GAT polypeptide
Work on B9 yielded a Kcat of 0.582 s⁻¹ and a Km of 7600 µM.

B10: SEQ ID NO: 369: GAT polypeptide (protein)
chain: MIEVKPINAEDTYEIRHRILRPNQPLEACKYETDLLGGTFHLGGYYRGKLISIASFHQAEHSELEGQKQYQLRGMATLEGYREQKAGSTLIRHAEELLRKKGADLLWCNARTSASGYYKKLGFSEQGGVYDIPPIGPHILMYKKLT
modifications: 4B_16E1
notes: GAT polypeptide
In the case of B10, the Kcat is reported as 0.283 s⁻¹ and the Km is reported as 1000 µM.

B11: SEQ ID NO: 267: GAT polypeptide (protein)
chain: MIEVKPINAEDTYEIRHRILRPNQPLEACKYETDLLRGAFHLGGYYRGKLVSIASFHQAEHPELEGQKQYQLRGMATLEGYREQKAGSTLIRHAEALLRKKGADLLWCNARTSASGYYKKLGFSEQGEVYDTPPAGPHILMYKKLT
modifications: 14_2F11
notes: GAT polypeptide
For B11, the Kcat was 2.282 s⁻¹ and the Km was 1700 µM.

B12: SEQ ID NO: 358: GAT polypeptide (protein)
chain: MIEVKPINAEDTYEIRHRILRPNQPLEACMYETDLLGGTFHLGGYYRGKLISIASFHQAEHSELEGQKQYQLRGMATLEGYREQKAGSTLIRHAEELLRKKGADLLWCNARTSASGYYKKLGFSEQGGVYDIPPIGPHILMYKKLT
modifications: 3B_10G7
notes: GAT polypeptide
Molecule B12 has a Kcat of 0.327 s⁻¹ and a Km of 1000 µM.

B13: SEQ ID NO: 359: GAT polypeptide (protein)
chain: MIEVKPINAEDTYEIRHRILRPNQPLEACMYETDLLGGTFHLGGYYRGKLISIASFHQAEHSELEGQKQYQLRGMATLEGYREQKAGSTLIRHAEELLRKKGADLLWCNARTSASGYYKKLGFSEQGEVYDIPPIGPHILMYKKLT
modifications: 3B_12B1
notes: GAT polypeptide
For B13, the Kcat was 0.38 s⁻¹ and the Km was 1200 µM.

B14: SEQ ID NO: 357: GAT polypeptide (protein)
chain: MIEVRPINAEDTYEIRHRILRPNQPLEACMYETDLLGGTFHLGGYYRGKLISIASFHQAEHSELEGQKQYQLRGMATLEGYREQKAGSTLIRHAEELLRKKGADLLWCNARTSASGYYKKLGFSEQGEAYDIPPIGPHILMYKKLT
modifications: 3B_10C4
notes: GAT polypeptide
Work on B14 yielded a Kcat of 0.413 s⁻¹ and a Km of 1600 µM.

B15: SEQ ID NO: 361: GAT polypeptide (protein)
chain: MIEVKPINAEDTYEIRHRILRPNQPLEACMYETDLLGGTFHLGGYYRGKLISIASFHQAEHSELEGQKQYQLRGMATLEGYREQKAGSTLIRHAEELLRKKGADLLWCNARTSASGYYEKLGFSKQGEVYDIPPIGPHILMYKKLT
modifications: 3B_2E5
notes: GAT polypeptide
With B15 the Kcat was 0.273 s⁻¹ and the Km was 1300 µM.

B16: SEQ ID NO: 366: GAT polypeptide (protein)
chain: MIEVKPINAEDTYEIRHRILRPNQPLEACKYETDLLGGTFHLGGYYRGKLISIASFHQAEHSELEGQKQYQLRGMATLEEYREQKAGSTLIRHAEELLRKKGADLLWCNARTSASGYYKKLGFSEQGEVYDIPPIGPHILMYKKLT
modifications: 4A_1C2
notes: GAT polypeptide
Work on B16 yielded a Kcat of 0.34 s⁻¹ and a Km of 1200 µM.

B17: SEQ ID NO: 364: GAT polypeptide (protein)
chain: MIEVKPINAEDTYEIRHRILRPNQPLEACMYETDLLGGTFHLGGYYQDRLISIASFHQAEHSELEGQKQYQLRGMATLEGYREQKAGSTLIRYAEELLRKKGADLLWCNARISASGYYEKLGFSEQGEVYDIPPIGPHILMYKKLT
modifications: 3C_9H8
notes: GAT polypeptide
In the case of B17, the Kcat is reported as 0.195 s⁻¹ and the Km is reported as 1000 µM.
